Laboratory results from patent US6479055.

Biological target: viral gp41 (HIV-1 transmembrane protein) of HIV-1IIIB (HIV-1IIIB) (UniProt P03377)
Assay: cell-based or functional assay

Substance | Cell fusion (IC90) | HIV infectivity (IC90)
DP178 (SEQ ID NO:1), synthetic peptide of amino acids 638 to 673 of HIV-1LAI gp41 | 0.001 µM | 0.08 µM
M41-P (M41 with an Ile to Pro mutation at position 578) (from UniProt P0AEX9 27-392; P03377 540-686) | 0.083 µM | 0.066 µM
M41 (maltose binding protein fused to the extracellular domain of HIV-1 gp41, residues 540-686) (from UniProt P0AEX9 27-392; P03377 540-686) | > 50 µM | > 16 µM
M41-PΔ178 (M41-P from which the DP-178 region has been deleted; gp41 amino acids 540-642 with Ile578Pro) (from UniProt P03377 540-642) | > 50 µM | > 8 µM
DP107 (SEQ ID NO:25), synthetic peptide of residues 558 to 595 of HIV-1LAI gp41 | 1 µM | 1 µM
